Results: IntAct's records for PubMed 30179222

B1: Nuclear pore complex protein Nup85 (Homo sapiens), Q9BW27 (parent)
chain: MEELDGEPTVTLIPGVNSKKNQMYFDWGPGEMLVCETSFNKKEKSEMVPSCPFIYIIRKDVDVYSQILRKLFNESHGIFLGLQRIDEELTGKSRKSQLVRVSKNYRSVIRACMEEMHQVAIAAKDPANGRQFSSQVSILSAMELIWNLCEILFIEVAPAGPLLLHLLDWVRLHVCEVDSLSADVLGSENPSKHDSFWNLVTILVLQGRLDEARQMLSKEADASPASAGICRIMGDLMRTMPILSPGNTQTLTELELKWQHWHEECERYLQDSTFATSPHLESLLKIMLGDEAALLEQKELLSNWYHFLVTRLLYSNPTVKPIDLHYYAQSSLDLFLGGESSPEPLDNILLAAFEFDIHQVIKECSIALSNWWFVAHLTDLLDHCKLLQSHNLYFGSNMREFLLLEYASGLFAHPSLWQLGVDYFDYCPELGRVSLELHIERIPLNTEQKALKVLRICEQRQMTEQVRSICKILAMKAVRNNRLGSALSWSIRAKDAAFATLVSDRFLRDYCERGCFSDLDLIDNLGPAMMLSDRLTFLGKYREFHRMYGEKRFADAASLLLSLMTSRIAPRSFWMTLLTDALPLLEQKQVIFSAEQTYELMRCLEDLTSRRPVHGESDTEQLQDDDIETTKVEMLRLSLARNLARAIIREGSLEGS
partner: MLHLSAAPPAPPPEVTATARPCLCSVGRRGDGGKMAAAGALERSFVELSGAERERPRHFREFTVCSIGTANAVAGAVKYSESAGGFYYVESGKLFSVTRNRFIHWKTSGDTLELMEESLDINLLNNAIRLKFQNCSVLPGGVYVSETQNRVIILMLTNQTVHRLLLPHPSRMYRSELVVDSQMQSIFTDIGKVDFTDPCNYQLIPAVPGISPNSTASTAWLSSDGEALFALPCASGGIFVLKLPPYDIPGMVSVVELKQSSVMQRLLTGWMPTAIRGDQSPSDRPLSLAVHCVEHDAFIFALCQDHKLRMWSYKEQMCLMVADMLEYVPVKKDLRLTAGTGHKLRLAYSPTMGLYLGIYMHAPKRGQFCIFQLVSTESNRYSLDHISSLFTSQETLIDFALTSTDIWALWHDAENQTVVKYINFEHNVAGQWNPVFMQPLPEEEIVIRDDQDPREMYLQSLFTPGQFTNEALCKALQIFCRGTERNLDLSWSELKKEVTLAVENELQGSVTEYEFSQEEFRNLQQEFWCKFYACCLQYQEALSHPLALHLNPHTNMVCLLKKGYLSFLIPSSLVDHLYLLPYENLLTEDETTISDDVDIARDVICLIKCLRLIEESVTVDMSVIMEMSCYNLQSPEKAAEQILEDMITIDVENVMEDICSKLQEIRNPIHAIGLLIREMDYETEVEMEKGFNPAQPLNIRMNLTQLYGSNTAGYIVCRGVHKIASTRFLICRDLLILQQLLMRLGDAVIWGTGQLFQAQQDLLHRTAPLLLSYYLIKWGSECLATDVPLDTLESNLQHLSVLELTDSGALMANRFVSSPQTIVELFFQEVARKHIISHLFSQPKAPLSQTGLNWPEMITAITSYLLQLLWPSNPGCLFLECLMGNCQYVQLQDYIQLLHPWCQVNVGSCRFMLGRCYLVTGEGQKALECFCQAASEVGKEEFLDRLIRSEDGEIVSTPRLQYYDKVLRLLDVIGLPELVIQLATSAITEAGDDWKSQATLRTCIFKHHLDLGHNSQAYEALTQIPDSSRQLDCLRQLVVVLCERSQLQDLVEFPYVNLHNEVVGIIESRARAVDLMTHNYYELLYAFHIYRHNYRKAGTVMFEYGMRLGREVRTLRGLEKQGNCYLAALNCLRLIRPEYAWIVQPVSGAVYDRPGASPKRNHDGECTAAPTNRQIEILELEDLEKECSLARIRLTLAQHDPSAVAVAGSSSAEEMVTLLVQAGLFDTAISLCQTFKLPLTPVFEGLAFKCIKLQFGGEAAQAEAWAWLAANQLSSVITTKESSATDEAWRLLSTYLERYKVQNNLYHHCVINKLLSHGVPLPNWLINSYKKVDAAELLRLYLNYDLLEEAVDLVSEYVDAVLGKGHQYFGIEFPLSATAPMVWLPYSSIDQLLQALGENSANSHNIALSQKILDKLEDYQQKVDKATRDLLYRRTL

Variants of: B1
Details: with nu160_human NUP160, Q12769

| effect of a mutation on the interaction | Variant |
| --- | --- |
| decreasing interaction strength | R645W |
| disrupting interaction strength | A581P |
| decreasing interaction strength | A477V |

Variants of: B1
Details: with nu160_human NUP160, Q12769
Remark: another data set of the same source

| effect of a mutation on the interaction | Variant |
| --- | --- |
| with no effect | A477V |
